Results taken from IntAct's records for PubMed 15744307.

B1: Short transient receptor potential channel 3 (Homo sapiens), Q13507 (parent)
chain: MSTKVRKCKEQARVTFPAPEEEEDEGEDEGAEPQRRRRGWRGVNGGLEPRSAPSQREPHGYCPPPFSHGPDLSMEGSPSLRRMTVMREKGRRQAVRGPAFMFNDRGTSLTAEEERFLDAAEYGNIPVVRKMLEESKTLNVNCVDYMGQNALQLAVGNEHLEVTELLLKKENLARIGDALLLAISKGYVRIVEAILNHPGFAASKRLTLSPCEQELQDDDFYAYDEDGTRFSPDITPIILAAHCQKYEVVHMLLMKGARIERPHDYFCKCGDCMEKQRHDSFSHSRSRINAYKGLASPAYLSLSSEDPVLTALELSNELAKLANIEKEFKNDYRKLSMQCKDFVVGVLDLCRDSEEVEAILNGDLESAEPLEVHRHKASLSRVKLAIKYEVKKFVAHPNCQQQLLTIWYENLSGLREQTIAIKCLVVLVVALGLPFLAIGYWIAPCSRLGKILRSPFMKFVAHAASFIIFLGLLVFNASDRFEGITTLPNITVTDYPKQIFRVKTTQFTWTEMLIMVWVLGMMWSECKELWLEGPREYILQLWNVLDFGMLSIFIAAFTARFLAFLQATKAQQYVDSYVQESDLSEVTLPPEIQYFTYARDKWLPSDPQIISEGLYAIAVVLSFSRIAYILPANESFGPLQISLGRTVKDIFKFMVLFIMVFFAFMIGMFILYSYYLGAKVNAAFTTVEESFKTLFWSIFGLSEVTSVVLKYDHKFIENIGYVLYGIYNVTMVVVLLNMLIAMINSSYQEIEDDSDVEWKFARSKLWLSYFDDGKTLPPPFSLVPSPKSFVYFIMRIVNFPKCRRRRLQKDIEMGMGNSKSRLNLFTQSNSRVFESHSFNSILNQPTRYQQIMKRLIKRYVLKAQVDKENDEVNEGELKEIKQDISSLRYELLEDKSQATEELAILIHKLSEKLNPSMLRCE
partner: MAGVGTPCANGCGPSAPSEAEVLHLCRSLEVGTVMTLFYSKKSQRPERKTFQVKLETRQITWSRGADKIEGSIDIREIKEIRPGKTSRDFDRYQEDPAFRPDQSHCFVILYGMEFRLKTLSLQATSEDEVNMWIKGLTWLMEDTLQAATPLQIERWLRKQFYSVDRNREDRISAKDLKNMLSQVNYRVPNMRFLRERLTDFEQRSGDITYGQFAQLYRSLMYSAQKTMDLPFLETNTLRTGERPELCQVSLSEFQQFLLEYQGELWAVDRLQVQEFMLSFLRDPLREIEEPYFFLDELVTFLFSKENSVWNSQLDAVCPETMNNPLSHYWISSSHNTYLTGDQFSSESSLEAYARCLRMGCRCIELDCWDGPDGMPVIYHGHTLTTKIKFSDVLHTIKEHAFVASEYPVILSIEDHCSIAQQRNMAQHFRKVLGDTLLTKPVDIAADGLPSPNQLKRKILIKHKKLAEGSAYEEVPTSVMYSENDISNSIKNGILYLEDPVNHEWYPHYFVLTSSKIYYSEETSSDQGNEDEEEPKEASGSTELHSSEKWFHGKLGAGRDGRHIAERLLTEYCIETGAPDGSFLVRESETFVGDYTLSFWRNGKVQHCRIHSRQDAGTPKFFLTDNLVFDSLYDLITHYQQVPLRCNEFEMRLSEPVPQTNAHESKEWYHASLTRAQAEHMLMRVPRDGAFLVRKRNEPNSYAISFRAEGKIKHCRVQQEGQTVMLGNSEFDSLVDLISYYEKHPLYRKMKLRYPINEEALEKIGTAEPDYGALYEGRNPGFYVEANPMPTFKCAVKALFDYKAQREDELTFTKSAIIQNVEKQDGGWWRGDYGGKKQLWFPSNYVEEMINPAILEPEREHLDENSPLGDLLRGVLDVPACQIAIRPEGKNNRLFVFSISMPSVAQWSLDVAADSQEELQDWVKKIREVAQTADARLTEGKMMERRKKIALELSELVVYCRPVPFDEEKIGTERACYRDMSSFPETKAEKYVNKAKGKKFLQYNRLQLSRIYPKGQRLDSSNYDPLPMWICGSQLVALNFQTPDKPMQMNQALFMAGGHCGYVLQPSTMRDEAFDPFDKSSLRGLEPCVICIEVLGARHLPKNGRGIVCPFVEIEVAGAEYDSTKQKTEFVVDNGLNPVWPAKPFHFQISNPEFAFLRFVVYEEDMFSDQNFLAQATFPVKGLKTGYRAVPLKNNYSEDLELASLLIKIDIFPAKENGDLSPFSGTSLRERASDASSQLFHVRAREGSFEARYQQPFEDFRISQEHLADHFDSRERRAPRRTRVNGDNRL

Variants of: B1
Conditions: with plcg1_rat Plcg1, P10686

Variant	effect of a mutation on the interaction
L117A	decreasing interaction
E113A	decreasing interaction
F116A	decreasing interaction
